Data published in paper PMC8318918.

Experiments:
[1] = molecular target: His-tagged LigIIIα (full-length DNA ligase IIIα), co-expressed with TDP1 in insect cells (human); assay: co-purification after co-expression
[2] = molecular target: LigIIIα co-expressed with His-tagged XRCC1 and TDP1 in insect cells (human); assay: co-purification after co-expression
[3] = molecular target: His-tagged LigIIIβ full length (1–846) (human); assay: SPR
[4] = molecular target: LigIII_(170–755) (human); assay: SEC-MALS
[5] = molecular target: His-tagged XRCC1, insect-cell expressed (human) (UniProt P18887); assay: co-purification after co-expression
UniProt P18887, sequence (P18887 whole entry): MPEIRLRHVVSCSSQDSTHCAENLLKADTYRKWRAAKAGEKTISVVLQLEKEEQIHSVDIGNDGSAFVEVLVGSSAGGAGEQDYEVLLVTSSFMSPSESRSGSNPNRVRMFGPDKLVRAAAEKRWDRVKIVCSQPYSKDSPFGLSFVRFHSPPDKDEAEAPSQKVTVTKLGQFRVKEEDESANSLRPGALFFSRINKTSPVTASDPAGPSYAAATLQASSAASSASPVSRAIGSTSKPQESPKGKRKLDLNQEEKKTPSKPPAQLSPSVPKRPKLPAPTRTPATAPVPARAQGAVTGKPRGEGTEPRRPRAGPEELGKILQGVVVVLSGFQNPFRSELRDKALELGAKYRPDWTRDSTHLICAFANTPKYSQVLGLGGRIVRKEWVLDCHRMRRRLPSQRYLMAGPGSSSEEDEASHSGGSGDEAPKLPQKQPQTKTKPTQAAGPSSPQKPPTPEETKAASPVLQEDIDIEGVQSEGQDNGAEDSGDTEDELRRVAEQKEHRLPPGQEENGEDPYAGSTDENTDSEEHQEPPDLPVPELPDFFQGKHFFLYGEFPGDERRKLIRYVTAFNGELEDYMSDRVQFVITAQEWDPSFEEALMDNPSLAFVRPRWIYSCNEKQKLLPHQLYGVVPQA

Row | Substance | stoichiometry N [1] | stoichiometry N [2] | Kd [3] [nM] | stoichiometry N [4] | stoichiometry N [5]
1 | Flag-tagged TDP1 (tyrosyl DNA phosphodiesterase 1), insect-cell expressed, phosphorylated (from UniProt Q9NUW8 1-608) (enzyme) | 1 | 1 | 5.1 | 1 | –
2 | TDP1-S81A, insect-cell expressed, phosphorylated (from UniProt Q9NUW8 1-608) (enzyme) | – | – | 5.3 | – | –
3 | TDP1-S81E, insect-cell expressed, phosphorylated (from UniProt Q9NUW8 1-608) (enzyme) | – | – | 8.8 | – | –
4 | LigIIIα co-expressed with His-tagged XRCC1 and TDP1 in insect cells (enzyme) | – | – | – | – | 1
